{"source": "patent US20190085028A1", "target": "NMDA receptor on rat hippocampal neurons (E18 Sprague Dawley primary culture) (rat), P35439", "experiment": "cell-based or functional assay", "data": [{"binder": "GEDDYQDAQDLIRDKSN", "note": "[Peptide SEQ ID NO: 3 (…)]", "values": [{"measurement": "IC50 of inhibition of NMDA receptor-evoked current (dose-response curve, FIG. 3H)", "result": 156, "unit": "µM"}, {"measurement": "inhibition of NMDA receptor-evoked current (whole-cell patch clamp), 10 µM peptide", "result": 14, "unit": "%"}, {"measurement": "inhibition of NMDA receptor-evoked current (whole-cell patch clamp), 100 µM peptide", "result": 40, "unit": "%"}, {"measurement": "inhibition of NMDA receptor-evoked current (whole-cell patch clamp), 500 µM peptide", "result": 66.5, "unit": "%"}]}]}
